Read-outs that look alike come from different tables or passages of the source. IR800 = IRDye800CW

The target in test [1] is T1, gastrin-releasing peptide receptor (human, UniProt P30550 1-384). Description: radioligand binding.
Test [2] addresses T1, gastrin-releasing peptide receptor. The test is described as follows: radioligand binding. The source holds these as a separate data set.

T1 sequence (P30550 whole entry): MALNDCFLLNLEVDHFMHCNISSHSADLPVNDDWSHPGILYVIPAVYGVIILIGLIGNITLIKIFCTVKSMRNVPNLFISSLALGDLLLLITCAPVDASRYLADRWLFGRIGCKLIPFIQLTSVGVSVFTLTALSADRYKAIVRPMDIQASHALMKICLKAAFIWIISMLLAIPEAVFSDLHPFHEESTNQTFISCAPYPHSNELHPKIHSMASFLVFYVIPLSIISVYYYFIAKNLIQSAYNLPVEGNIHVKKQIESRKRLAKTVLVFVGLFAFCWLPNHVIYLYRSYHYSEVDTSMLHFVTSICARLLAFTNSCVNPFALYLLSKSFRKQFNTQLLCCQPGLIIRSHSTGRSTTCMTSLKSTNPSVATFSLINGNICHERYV

As to IR800-GSGQWAVGHLM-NH2 [IR800-GSG-t-BBN], the IC50 in test [1] came out at 0.056 µM; in test [2], 0.0574 µM.

One may read the IC50 as the midpoint of a concentration-inhibition curve. High values mean lower potency, low ones higher potency.

The record behind these values is paper PMC5885141 (Molecular imaging and biology : MIB : the official …, 2014).
